Paper PMC5943350

Experiments:
[1] = molecular target: human TNF-α (human) (UniProt P01375)
[2] = molecular target: TNFRII-Trimer fusion protein (homotrimeric soluble human TNF receptor II fused to the Trimer-Tag, the C-propeptide of human α1(III) collagen) (human) (UniProt P20333); test: SEC + other: non-reducing SDS-PAGE; purified TNFRII-Trimer on 10% SDS-PAGE under non-reducing or reducing conditions (Coomassie; Western blot under non-reducing conditions too) and SEC-HPLC (Sepax Zenix-C SEC-300, OD280), TNFRII-Fc as dimeric control

Sequence of UniProt P01375 (P01375 77-233): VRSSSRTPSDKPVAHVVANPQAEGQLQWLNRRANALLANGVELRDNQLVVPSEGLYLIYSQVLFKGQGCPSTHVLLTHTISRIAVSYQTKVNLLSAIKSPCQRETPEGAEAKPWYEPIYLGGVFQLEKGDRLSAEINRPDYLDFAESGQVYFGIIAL

stoichiometry N [2]	Substance	IC50 of neutralisation of TNF-α (2.5 ng/mL)-induced cytotoxicity in L929 cells, MTT assay, molar basis [1]	IC50 of neutralisation of TNF-α (2.5 ng/mL)-induced cytotoxicity in L929 cells, MTT assay, weight basis [1]
	TNFRII-Fc (dimeric soluble human TNFRII receptor-Fc fusion) (from UniProt P20333 23-257)	0.0986 nM	0.0101 µg/mL
3	TNFRII-Trimer fusion protein (homotrimeric soluble human TNF receptor II fused to the Trimer-Tag, the C-propeptide of human α1(III) collagen) (from UniProt P20333 23-256)		
